Primed or numbered codes have the meaning given here. No end group written: not given here. Biotin′ = not defined here
Target: T1, NPAT (UniProt Q14207 1-1427)
T1 construct: other lysate proteins were present
T1 sequence (looked up): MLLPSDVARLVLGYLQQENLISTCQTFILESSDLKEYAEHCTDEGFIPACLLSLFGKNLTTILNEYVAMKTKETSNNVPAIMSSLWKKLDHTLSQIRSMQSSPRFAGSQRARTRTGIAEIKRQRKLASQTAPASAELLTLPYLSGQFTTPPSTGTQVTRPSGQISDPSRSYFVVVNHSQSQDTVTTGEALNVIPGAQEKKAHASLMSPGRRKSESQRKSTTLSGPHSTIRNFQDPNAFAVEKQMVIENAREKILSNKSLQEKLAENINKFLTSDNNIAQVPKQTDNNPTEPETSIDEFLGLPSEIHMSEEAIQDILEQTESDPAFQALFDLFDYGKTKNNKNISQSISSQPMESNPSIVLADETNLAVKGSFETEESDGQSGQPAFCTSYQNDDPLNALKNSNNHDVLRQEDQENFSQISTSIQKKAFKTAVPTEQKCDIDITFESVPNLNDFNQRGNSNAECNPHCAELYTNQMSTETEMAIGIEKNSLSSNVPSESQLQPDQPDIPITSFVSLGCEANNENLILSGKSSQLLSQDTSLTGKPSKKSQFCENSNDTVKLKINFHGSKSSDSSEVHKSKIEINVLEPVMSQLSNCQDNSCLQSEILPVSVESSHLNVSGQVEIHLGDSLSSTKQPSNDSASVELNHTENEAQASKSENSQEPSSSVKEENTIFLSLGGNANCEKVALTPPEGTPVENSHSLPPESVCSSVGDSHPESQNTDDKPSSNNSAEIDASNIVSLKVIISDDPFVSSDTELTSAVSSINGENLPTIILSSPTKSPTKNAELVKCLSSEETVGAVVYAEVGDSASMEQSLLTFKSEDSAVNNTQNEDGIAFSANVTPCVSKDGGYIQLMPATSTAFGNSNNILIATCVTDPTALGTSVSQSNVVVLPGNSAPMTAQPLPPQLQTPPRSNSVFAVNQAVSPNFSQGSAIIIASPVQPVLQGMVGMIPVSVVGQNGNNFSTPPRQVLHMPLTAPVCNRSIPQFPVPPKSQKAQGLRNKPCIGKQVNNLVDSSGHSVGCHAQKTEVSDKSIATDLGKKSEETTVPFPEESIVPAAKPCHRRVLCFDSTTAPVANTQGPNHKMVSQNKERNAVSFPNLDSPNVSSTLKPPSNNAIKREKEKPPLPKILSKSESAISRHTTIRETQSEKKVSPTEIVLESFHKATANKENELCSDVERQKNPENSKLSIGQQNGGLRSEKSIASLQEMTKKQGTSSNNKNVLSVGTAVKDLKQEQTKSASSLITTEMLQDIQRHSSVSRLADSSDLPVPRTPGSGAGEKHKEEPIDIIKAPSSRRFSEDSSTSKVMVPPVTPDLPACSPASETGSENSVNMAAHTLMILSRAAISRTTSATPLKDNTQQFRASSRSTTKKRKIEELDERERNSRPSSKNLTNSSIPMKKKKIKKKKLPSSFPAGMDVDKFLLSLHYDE
Assay: filter binding: peptide on nitrocellulose, HEK293 lysate, NPAT immunoblot

binding result: binds
B1: H2B(25-49) (peptide)
peptide: DGKKRKRSRKESYSVYVYKVLKQVH-{Biotin′}
notes: also called unphosphorylated H2B; human histone H2B peptide spanning amino acids 25-49

— patent US20160091498A1 (H LEE MOFFITT CANCER CENTER AND RESEARCH INSTITUTE, published 2016)
